In experiment [1] the target is T1, NXF1 (Mus musculus, UniProt Q99JX7).
T1 construct: endogenous in cells; host or cells: Neuro-2a (N2A)
T1 sequence (Q99JX7 1-618): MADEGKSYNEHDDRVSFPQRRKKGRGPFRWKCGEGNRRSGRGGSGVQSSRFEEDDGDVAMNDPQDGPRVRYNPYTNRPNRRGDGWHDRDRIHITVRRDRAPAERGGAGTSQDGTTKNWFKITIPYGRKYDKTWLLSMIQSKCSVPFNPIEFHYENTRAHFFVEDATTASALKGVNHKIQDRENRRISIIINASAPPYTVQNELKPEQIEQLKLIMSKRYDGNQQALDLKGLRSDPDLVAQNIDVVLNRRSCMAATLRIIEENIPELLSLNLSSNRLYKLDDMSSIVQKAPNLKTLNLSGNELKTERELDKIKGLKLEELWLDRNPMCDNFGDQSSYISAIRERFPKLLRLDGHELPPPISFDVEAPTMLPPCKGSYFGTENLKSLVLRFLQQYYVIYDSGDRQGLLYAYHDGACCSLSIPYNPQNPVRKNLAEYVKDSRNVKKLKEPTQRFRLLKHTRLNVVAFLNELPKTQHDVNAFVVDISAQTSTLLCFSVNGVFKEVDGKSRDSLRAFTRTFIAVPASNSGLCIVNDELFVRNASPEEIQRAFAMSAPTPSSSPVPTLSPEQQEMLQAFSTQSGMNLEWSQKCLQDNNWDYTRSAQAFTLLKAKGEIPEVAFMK
Nature of the experiment: Anti-FLAG co-immunoprecipitation of endogenous NXF1 in N2A cells. The class given is binding. The settings on record: FLAG-tagged protein, 48 h. As to the method: Cells were split into 1×10 cm plates/treatment (1.5×10^6 cells/plate) and transfected with 15 μg p3×FLAG, p3×FLAG/SRSF1 (11-196), p3×FLAG/SRSF1 (11-196)-m2 or p3×FLAG/SRSF1(11-196)-m4 using 3 μg PEI/1 μg DNA and one tenth medium volume OptiMEM.
Proteins were extracted from Neuro-2a cells 48 hours after transfection. Cells were briefly washed in ice cold PBS, scraped into 500 μl ice cold lysis buffer, passed through a 21G gauge needle 10 times and left to lyse on ice for 10 minutes. Lysed cells were cleared by centrifugation at maximum speed at 4° C. for five minutes and protein extracts were quantified using Bradford Reagent. 2 mg of total protein in 1 ml lysis buffer was incubated with 30 μl anti-FLAG® M2 affinity resin slurry (Sigma A2220) (which had been blocked overnight with 1% BSA in IP lysis buffer) for 2 hours at 4° C. on a rotating wheel. […] 30 μg total protein and 15 μl captured protein complexes were resolved by SDS-PAGE, electroblotted onto nitrocellulose membrane and probed using FLAG, NXF1 clone 53H8 [1:2000] (Abcam ab50609) and […]-tubulin.

For experiment [2], the system named is G4C2×5 repeat RNA. Nature of the experiment: Protein:RNA UV crosslinking assay, sense probe. The settings on record: purified recombinant hexa-histidine-tagged protein. The class given is binding. As to the method:
(§1) Recombinant proteins expressed in 1.51 of E. coli BL21 (DE3)-RP (Novagen) cell cultures were purified by IMAC chromatography on TALON/Cobalt beads (Clontech) in 1M NaCl containing buffers to prevent the potential co-purification of E. coli RNA (Lysis buffer: 50 mM TRIS-HCl pH8.0, 1M NaCl, 0.5% Triton X-100; Wash buffer: 50 mM TRIS-HCl pH8.0, 1M NaCl, 0.5% Triton X-100, 5 mM imidazole). […] Binding reactions were resolved on SDS-PAGE prior to analysis by Coomassie staining and Phosphoimaging.

Experiment [3] relates to C4G2×5 repeat RNA. Nature of the experiment: Protein:RNA UV crosslinking assay, antisense probe. The class given is binding. The settings on record: purified recombinant hexa-histidine-tagged protein. As to the method: as §1
Experiment [4] has as its system G4C2-sense or C4G2-antisense repeat transcripts. Nature of the experiment: RNA immunoprecipitation (RIP) assays in N2A cells. The class given is binding, mouse. The settings on record: 15 vs 38/39 repeats. As to the method: Cells were split into 1×T-175 flasks/treatment (5×10^6 cells/plate) and transfected with 30 μg p3×FLAG, p3×FLAG/SRSF1 (11-196) or p3×FLAG/SRSF1 (11-196)-m4 and 10 μg pcDNA 3.1/RAN-G4C2×15-sense, RAN-G4C2×38-sense, RAN-G4C2×15-antisense or RAN-C4G2×39-antisense using 3 μg PEI/1 μg […] and one tenth volume OptiMEM.
Protein-RNA complexes were extracted from Neuro-2a cells 48 hours after transfection. Protein-RNA complexes were cross-linked using 1% formaldehyde for 10 minutes, shaking at room temperature. Residual formaldehyde was quenched with 250 mM Glycine at room temperature for 5 minutes, shaking. Cross-linked cells were subsequently washed in ice cold DEPC treated PBS and scraped into ice cold RNase free lysis buffer (DEPC treated water containing 50 mM Hepes pH7.5, 150 mM NaCl, 10% glycerol, 0.5% triton X-100, 1 mM EDTA, 1 mM DTT, 1 μl RNase inhibitor, protease inhibitor cocktail). Cells were passed through a 21G gauge needle 10 times and left to lyse on ice for 10 minutes, followed by centrifugation at maximum speed at 4° C. for five minutes and quantification using Bradford Reagent. 2.5 mg of total protein at a 1 mg/ml concentration was incubated with 40 μl anti-FLAG® M2 affinity resin slurry (which had been blocked overnight with 1% BSA and 5 μl/ml ssDNA) overnight at 4° C. on a rotating wheel. One 15th of the total protein extract was retained for an input sample. […]

B1: SRSF1-m4: quadruple SRSF1 point mutant aa11-196, dominant negative, does not interact with TAP/NXF1 (protein)
chain: AGNNDCRIYVGNLPPDIRTKDIEDVFYKYGAIRDIDLKNRRGGPPFAFVEFEDPRDAEDAVYGRDGYDYDGYRLRVEFPASGAGTGRGGGGGGGGGAPRGRYGPPSAASENRVVVSGLPPSGSWQDLKDHMREAGDVCYADVYRDGTGVVEFVRKEDMTYAVRKLDNTKFRSHEGETAYIRVKVDG
modifications: left off: small tags and cut ends
Turning to B1, the “co-immunoprecipitation of endogenous NXF1” value in experiment [1] is on record as “severely impaired”. Moreover, the “direct interaction with sense G4C2×5 repeat RNA” value in experiment [2] is “retains the ability to directly interact”. Also, the “direct interaction with antisense C4G2×5 repeat RNA” value in experiment [3] is reported as “retains the ability to directly interact”. Also, in experiment [4], the immunoprecipitated repeat transcripts result is “length-dependent repeat-RNA sequestration”.

Source of the values: patent US10801027B2, “Inhibitors of SRSF1 to treat neurodegenerative disorders” (University of Sheffield, priority 2016, dated 2020).
